Data on 7 molecules can be found in patent US20140294884A1 (Novartis, published 2014).

The target in data set [1] is receptor for App on Chang conjunctiva epithelial cells (proteinaceous, not identified) (human). As to the kind of experiment: cell-based or functional assay.
Data set [2] shares this target. The data set can be described thus: FACS binding assay on Chang cells (FIG. 35). On the technique in general: Flow cytometry measures light scatter and fluorescence of single cells or particles in a stream.
Data set [3] deals with human receptor for NadA on Chang conjunctiva epithelial cells (pronase-sensitive protein, not identified) (human). As to the kind of experiment: FACS on Chang cells, MFI against protein concentration.
Data set [4] deals with the molecule itself. The data set can be described thus: Western blot of whole cell lysates with anti-NadA serum (self-association). A general note: A western blot detects proteins with antibodies after separation by electrophoresis.

As for “App S267A expressed on the surface of E. coli (pET-AppS267A transformants)”, the fluorescence shift (cells positive to adhesion), FACS adhesion of E. coli to Chang cells in data set [1] was 91%. For “App expressed from the full-length gene on the surface of E. coli (pET-App transformants)”, in data set [1], the fluorescence shift (cells positive to adhesion), FACS adhesion of E. coli to Chang cells worked out at 90.3%.

Molecule App-His showed a concentration at which binding reaches a plateau in data set [2] of 50 µg/mL.

The molecule “NadA (purified recombinant protein used in FACS binding to Chang cells)” displayed a concentration at which binding reaches a plateau in data set [3] of 200 µg/mL. Consider “Appβ expressed on the surface of E. coli (pET-Appβ transformants)”, for which, in data set [1], the fluorescence shift, FACS adhesion of E. coli to Chang cells was found to be 74.2%.

B1: NadA allele 2 (strain 90/18311) (other)
chain: ATNDDDVKKAATVAIAAAYNNGQEINGFKAGETIYDIDEDGTITKKDATAADVEADDFKGLGLKKVVTNLTKTVNENKQNVDAKVKAAESEIEKLTTKLADTDAALDATTNALNKLGENITTFAEETKTNIVKIDEKLEAVADTVDKHAEAFNDIADSLDETNTKADEAVKTANEAKQTAEETKQNVDAKVKAAETAAGKAEAAAGTANTAADKAEAVAAKVTDIKADIATNKDNIAKKANSADVYTREESDSKFVRIDGLNATTEKLDTRLASAEKSITEHGTRLNGLDRTVSDLRKETRQGLAEQAALSGLFQPYNVGRFNVTAAVGGYKSESAVAIGTGFRFTENFAAKAGVAVGTSSGSSAAYHVGVNYEW
notes: also called allele 2 of 961
Take B1: the binding result in data set [4] is given as “binds”.

B2: NadA allele 1 (strain MC58) (other)
chain: ATSDDDVKKAATVAIVAAYNNGQEINGFKAGETIYDIGEDGTITQKDATAADVEADDFKGLGLKKVVTNLTKTVNENKQNVDAKVKAAESEIEKLTTKLADTDAALADTDAALDETTNALNKLGENITTFAEETKTNIVKIDEKLEAVADTVDKHAEAFNDIADSLDETNTKADEAVKTANEAKQTAEETKQNVDAKVKAAETAAGKAEAAAGTANTAADKAEAVAAKVTDIKADIATNKADIAKNSARIDSLDKNVANLRKETRQGLAEQAALSGLFQPYNVGRFNVTAAVGGYKSESAVAIGTGFRFTENFAAKAGVAVGTSSGSSAAYHVGVNYEW
notes: Oligomer of about 170 kDa; also called allele 1 of 961
As for B2, in data set [4], the binding result is listed as “binds”.
